Target: NTR 2.0 (engineered nitroreductase; Vibrio vulnificus NfsB F70A/F108Y) (Vibrio vulnificus (CMCP6))
Assay: crystal structure; hanging-drop vapour diffusion at 291 K; protein 10 mg/mL in 40 mM Tris-HCl pH 7.0, 200 mM NaCl; precipitant 0.1 M sodium acetate trihydrate pH 4.5, 32% (v/v) PEG 300; two molecules in the asymmetric unit; FMN and acetate bound

Substance: NTR 2.0 (engineered nitroreductase; Vibrio vulnificus NfsB F70A/F108Y) (enzyme)
- stoichiometry N: 2
